Laboratory results: US20250243277A1 (AVACTA LIFE SCIENCES, published 2025)

B1: Clone 241 (designed binder)
chain: MIPGGLSEAKPATPEIQEIVDKVKPQLEEKTGETYGKLEAVQYKTQVVSRLHFPNFQGTNYYIKVRAGDNKYMHLKVFKSLNLEHPTDETEDLVLTGYQVDKNKDDELTGF
notes: His-tagged
B2: Clone 252 (designed binder)
chain: MIPGGLSEAKPATPEIQEIVDKVKPQLEEKTGETYGKLEAVQYKTQVVAVRPIFKWAGTNYYIKVRAGDNKYMHLKVFKSLFHGPLDNYTEDLVLTGYQVDKNKDDELTGF
notes: His-tagged
B3: Clone 238 (designed binder)
chain: MIPGGLSEAKPATPEIQEIVDKVKPQLEEKTGETYGKLEAVQYKTQVVRHKGLWQFEGTNYYIKVRAGDNKYMHLKVFKSLSHQPYRATIEDLVLTGYQVDKNKDDELTGF
notes: His-tagged
B4: Clone 244 (designed binder)
chain: MIPGGLSEAKPATPEIQEIVDKVKPQLEEKTGETYGKLEAVQYKTQVVWDSEALPIDGTNYYIKVRAGDNKYMHLKVFKSLRWWPWDAVGEDLVLTGYQVDKNKDDELTGF
notes: His-tagged
B5: Clone 4 (designed binder)
chain: MIPGGLSEAKPATPEIQEIVDKVKPQLEEKTGETYGKLEAVQYKTQVVFQTWDHAWTGTNYYIKVRAGDNKYMHLKVFKSLFAAETQQYYEDLVLTGYQVDKNKDDELTGF
notes: His-tagged
B6: Clone 248 (designed binder)
chain: MIPGGLSEAKPATPEIQEIVDKVKPQLEEKTGETYGKLEAVQYKTQVVLQLPPRPHDGTNYYIKVRAGDNKYMHLKVFKSLNWEPAQHPVEDLVLTGYQVDKNKDDELTGF
notes: His-tagged
B7: Clone 245 (designed binder)
chain: MIPGGLSEAKPATPEIQEIVDKVKPQLEEKTGETYGKLEAVQYKTQVVGYLELWKWSGTNYYIKVRAGDNKYMHLKVFKSLYNLHHPHKDEDLVLTGYQVDKNKDDELTGF
notes: His-tagged
B8: Clone 41 (designed binder)
chain: MIPGGLSEAKPATPEIQEIVDKVKPQLEEKTGETYGKLEAVQYKTQVVGTRDEWHWVGTNYYIKVRAGDNKYMHLKVFKSLFVKDDGRVDEDLVLTGYQVDKNKDDELTGF
notes: His-tagged
B9: Clone 37 (designed binder)
chain: MIPGGLSEAKPATPEIQEIVDKVKPQLEEKTGETYGKLEAVQYKTQVVHHFAEVKWYGTNYYIKVRAGDNKYMHLKVFKSLKITGSTLTFEDLVLTGYQVDKNKDDELTGF
notes: His-tagged
B10: Clone 27 (designed binder)
chain: MIPGGLSEAKPATPEIQEIVDKVKPQLEEKTGETYGKLEAVQYKTQVVDVKPKWQWTGTNYYIKVRAGDNKYMHLKVFKSLFEGEDRDAVEDLVLTGYQVDKNKDDELTGF
notes: His-tagged
B11: Clone 250 (designed binder)
chain: MIPGGLSEAKPATPEIQEIVDKVKPQLEEKTGETYGKLEAVQYKTQVVRDPDVFVFSGTNYYIKVRAGDNKYMHLKVFKSLWYYNDNQSGEDLVLTGYQVDKNKDDELTGF
notes: His-tagged
B12: Clone 249 (designed binder)
chain: MIPGGLSEAKPATPEIQEIVDKVKPQLEEKTGETYGKLEAVQYKTQVVIYYPIWGFQGTNYYIKVRAGDNKYMHLKVFKSLRWSKDGATAEDLVLTGYQVDKNKDDELTGF
notes: His-tagged
B13: Clone 237 (designed binder)
chain: MIPGGLSEAKPATPEIQEIVDKVKPQLEEKTGETYGKLEAVQYKTQVVVAGLKWHWEGTNYYIKVRAGDNKYMHLKVFKSLIYASQYDYREDLVLTGYQVDKNKDDELTGF
notes: His-tagged
B14: Clone 28 (designed binder)
chain: MIPGGLSEAKPATPEIQEIVDKVKPQLEEKTGETYGKLEAVQYKTQVVAAFSVHPSSGTNYYIKVRAGDNKYMHLKVFKSLEKYHNIWYVEDLVLTGYQVDKNKDDELTGF
notes: His-tagged
B15: Clone 25 (designed binder)
chain: MIPGGLSEAKPATPEIQEIVDKVKPQLEEKTGETYGKLEAVQYKTQVVVRHPRWFFIGTNYYIKVRAGDNKYMHLKVFKSLKKHGDEVTLEDLVLTGYQVDKNKDDELTGF
notes: His-tagged
B16: Clone 46 (designed binder)
chain: MIPGGLSEAKPATPEIQEIVDKVKPQLEEKTGETYGKLEAVQYKTQVVVQHSLWYFQGTNYYIKVRAGDNKYMHLKVFKSLFKHPEENPVEDLVLTGYQVDKNKDDELTGF
notes: His-tagged
B17: Clone 35 (designed binder)
chain: MIPGGLSEAKPATPEIQEIVDKVKPQLEEKTGETYGKLEAVQYKTQVVKYETHFYYEGTNYYIKVRAGDNKYMHLKVFKSLPKRWAYNAYEDLVLTGYQVDKNKDDELTGF
notes: His-tagged
B18: Clone 239 (designed binder)
chain: MIPGGLSEAKPATPEIQEIVDKVKPQLEEKTGETYGKLEAVQYKTQVVLTIPPTAFSGTNYYIKVRAGDNKYMHLKVFKSLGWNLHEVALEDLVLTGYQVDKNKDDELTGF
notes: His-tagged
B19: Clone 235 (designed binder)
chain: MIPGGLSEAKPATPEIQEIVDKVKPQLEEKTGETYGKLEAVQYKTQVVWNPPSLPISGTNYYIKVRAGDNKYMHLKVFKSLAWDNTAKHGEDLVLTGYQVDKNKDDELTGF
notes: His-tagged
B20: Clone 39 (designed binder)
chain: MIPGGLSEAKPATPEIQEIVDKVKPQLEEKTGETYGKLEAVQYKTQVVEIRPVWDWSGTNYYIKVRAGDNKYMHLKVFKSLFDHESKPTAEDLVLTGYQVDKNKDDELTGF
notes: His-tagged
B21: Clone 243 (designed binder)
chain: MIPGGLSEAKPATPEIQEIVDKVKPQLEEKTGETYGKLEAVQYKTQVVWKQITLPVDGTNYYIKVRAGDNKYMHLKVFKSLHWDEYEYDEEDLVLTGYQVDKNKDDELTGF
notes: His-tagged
B22: Clone 242 (designed binder)
chain: MIPGGLSEAKPATPEIQEIVDKVKPQLEEKTGETYGKLEAVQYKTQVVVEWSESGYDGTNYYIKVRAGDNKYMHLKVFKSLRLKSNVNIAEDLVLTGYQVDKNKDDELTGF
notes: His-tagged
B23: Clone 33 (designed binder)
chain: MIPGGLSEAKPATPEIQEIVDKVKPQLEEKTGETYGKLEAVQYKTQVVNQPQPPWIRGTNYYIKVRAGDNKYMHLKVFKSLNWNSPNLTWEDLVLTGYQVDKNKDDELTGF
notes: His-tagged
B24: Clone 31 (designed binder)
chain: MIPGGLSEAKPATPEIQEIVDKVKPQLEEKTGETYGKLEAVQYKTQVVAQDLSAFQIGTNYYIKVRAGDNKYMHLKVFKSLIFAPLKPWREDLVLTGYQVDKNKDDELTGF
notes: His-tagged

Target: T1, human PD-L1-Fc (R&D Systems) (human, UniProt Q9NZQ7 19-239)
T1 construct: Bought from R&D Systems; Biotinylated in-house for the phage selection; also called huPD-L1-Fc; human PD-L1-Fc antigen; not shown: Fc part of the bought fusion
Test: soluble Affimer ELISA

T1 sequence (Q9NZQ7 19-239 limits assumed): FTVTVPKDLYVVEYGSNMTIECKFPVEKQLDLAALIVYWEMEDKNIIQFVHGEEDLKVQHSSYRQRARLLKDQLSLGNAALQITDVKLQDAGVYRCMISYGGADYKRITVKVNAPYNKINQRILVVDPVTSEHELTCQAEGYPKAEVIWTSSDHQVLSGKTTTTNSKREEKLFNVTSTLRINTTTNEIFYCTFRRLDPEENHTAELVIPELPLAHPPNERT

Binding result, binds:
B1
B2
B3
B4
B5
B6
B7
B8
B9
B10
B11
B12
B13
B14
B15
B16
B17
B18
B19
B20
B21
B22
B23
B24
